Assay results reported in patent US20220073599A1 (Hoffmann-La Roche, published 2022).
One block for each binder: values may come before it.

Columns and labels:
[1] = target: T1, Mouse ANG2 (mouse, UniProt O35608 275-496, limits assumed); assay: SPR crossreactivity set-up, Fab captured by anti-Fab antibody, Ang2-RBD injected, 25 C
T1 construct: domain: RBD; also called mouse Ang2-RBD
T1 sequence (looked up): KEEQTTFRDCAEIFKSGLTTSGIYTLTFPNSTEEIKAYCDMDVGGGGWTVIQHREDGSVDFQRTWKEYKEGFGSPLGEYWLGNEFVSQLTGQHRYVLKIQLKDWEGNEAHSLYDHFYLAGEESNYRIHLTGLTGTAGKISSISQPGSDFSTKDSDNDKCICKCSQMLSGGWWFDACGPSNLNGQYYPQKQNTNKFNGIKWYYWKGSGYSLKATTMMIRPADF
Experimental: (§1) An anti-Fab capturing antibody (GE Healthcare 28958325) was immobilized to a Series S Sensor Chip C1 (GE Healthcare BR100535) using standard amine coupling chemistry resulting in a surface density of approximately 800 resonance units (RU). As running and dilution buffer, HBS-P+ (10 mM HEPES, 150 mM NaCl pH 7.4, 0.05% Surfactant P20) was used, the temperature of measurement was 25° C. The tested antibody was captured by injecting a 50 nM solution for 60 sec at a flow of 5 μl/min. Association was measured by injection of Ang2-RBD from the indicated species in various concentrations in solution for 180 sec at a flow of 30 μl/min (0.07 nM-50 nM, 1:3 dilution). The dissociation phase was monitored for up to 600 sec and triggered by switching from the sample solution to running buffer at a flow rate of 30 μl/min. The surface was regenerated by injection of 10 mM Glycine pH 2.1 for 60 s at a flow rate of 30 μl/min. Bulk refractive index differences were corrected by subtracting blank injections and by subtracting the response obtained from the reference flow cell without captured antibody. Curve fitting was performed using the 1:1 Langmuir binding model within the Biacore® evaluation software.
(§2) Crossreactivity to VEGF-A and ANG2 from other species was assessed as described above in “Materials & general methods” section.

[2] = target: T2, Cyno ANG2 (cyno, UniProt A0A2K5VNX6 281-496); assay: as above
T2 construct: domain: RBD; also called cyno Ang2-RBD
T2 sequence: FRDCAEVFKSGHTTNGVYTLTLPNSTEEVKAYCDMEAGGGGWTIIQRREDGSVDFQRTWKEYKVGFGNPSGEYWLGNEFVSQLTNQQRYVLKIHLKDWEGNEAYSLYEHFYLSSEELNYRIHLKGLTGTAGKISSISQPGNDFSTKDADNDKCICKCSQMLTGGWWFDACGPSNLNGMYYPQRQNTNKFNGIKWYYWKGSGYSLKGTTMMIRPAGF
Experimental: as §1, §2

[3] = target: T3, human Ang2-RBD (human, UniProt O15123 275-496, limits assumed); assay: as above
T3 construct: also called Human ANG2 (SPR); Angiopoietin 2-RBD
T3 sequence: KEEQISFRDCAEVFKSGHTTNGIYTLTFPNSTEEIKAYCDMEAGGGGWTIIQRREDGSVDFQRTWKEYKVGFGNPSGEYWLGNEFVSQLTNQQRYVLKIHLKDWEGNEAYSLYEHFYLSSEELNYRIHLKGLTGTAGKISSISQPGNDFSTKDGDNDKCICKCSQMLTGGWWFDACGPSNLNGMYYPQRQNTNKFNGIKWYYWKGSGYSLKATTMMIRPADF
Experimental: as §1, §2

[4] = target: T4, Rabbit ANG2 (rabbit, UniProt G1T9B3 281-496); assay: as above
T4 construct: domain: RBD; also called rabbit Ang2-RBD
T4 sequence: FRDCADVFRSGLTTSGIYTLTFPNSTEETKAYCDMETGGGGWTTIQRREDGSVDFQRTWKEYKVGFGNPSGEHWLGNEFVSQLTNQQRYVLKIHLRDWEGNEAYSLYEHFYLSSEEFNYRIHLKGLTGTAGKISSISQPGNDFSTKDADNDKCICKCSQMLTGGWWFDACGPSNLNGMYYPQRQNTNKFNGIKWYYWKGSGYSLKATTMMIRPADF
Experimental: as §1, §2

[5] = target: T5, Pig ANG2 (pig, UniProt Q9BDY7 275-496, limits assumed); assay: as above
T5 construct: domain: RBD; also called pig Ang2-RBD
T5 sequence (looked up): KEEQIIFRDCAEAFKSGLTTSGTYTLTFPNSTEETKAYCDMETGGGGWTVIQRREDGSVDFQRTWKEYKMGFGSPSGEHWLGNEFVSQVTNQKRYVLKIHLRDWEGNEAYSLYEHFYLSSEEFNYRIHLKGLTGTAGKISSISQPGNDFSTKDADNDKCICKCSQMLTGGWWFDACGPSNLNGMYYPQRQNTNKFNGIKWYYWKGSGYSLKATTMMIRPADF
Experimental: as §1, §2

[6] = target: T6, human VEGFA-121-His (human, UniProt P15692 181-395); assay: SPR, VEGF-A121-His captured by anti-His antibody, Fab injected, single cycle kinetics; marked outside of Biacore specification
T6 construct: Prepared in-house; not shown: His tag
T6 sequence: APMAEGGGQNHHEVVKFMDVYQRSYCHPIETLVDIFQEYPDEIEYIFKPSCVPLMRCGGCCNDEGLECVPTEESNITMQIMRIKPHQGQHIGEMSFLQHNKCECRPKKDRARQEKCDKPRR
Experimental: An anti-His capturing antibody (GE Healthcare 28995056) was immobilized to a Series S Sensor Chip C1 (GE Healthcare BR100535) using standard amine coupling chemistry resulting in a surface density of approximately 600 resonance units (RU). As running and dilution buffer, HBS-P+ (10 mM HEPES, 150 mM NaCl pH 7.4, 0.05% Surfactant P20) was used. […] A dilution series of the tested antibody (3.7-300 nM, 1:3 dilution) was successively injected for 60 s each, dissociation was monitored for 3600 s at a flow rate of 30 μl/min (single cycle kinetics). The surface was regenerated by injecting 10 mM Glycine pH 1.5 for 60 s at a flow of 5 μl/min. […] Curve fitting was performed using the 1:1 Langmuir binding model within the Biacore® evaluation software.

- Kd [1]: 92 pM
- koff [1]: 0.000743 s⁻¹
- kon [1]: 8.11e+06 M⁻¹ s⁻¹
- t1/2 [1]: 0.267 h
- Kd [2]: 2 pM
- koff [2]: 1.56e-05 s⁻¹
- kon [2]: 9.98e+06 M⁻¹ s⁻¹
- t1/2 [2]: 12.3 h
- Kd [3]: 3 pM
- koff [3]: 2.64e-05 s⁻¹
- kon [3]: 1.02e+07 M⁻¹ s⁻¹
- t1/2 [3]: 7.28 h
- Kd [4]: 5 pM
- koff [4]: 5.33e-05 s⁻¹
- kon [4]: 9.91e+06 M⁻¹ s⁻¹
- t1/2 [4]: 3.62 h
- Kd [5]: 13 pM
- koff [5]: 0.000105 s⁻¹
- kon [5]: 7.82e+06 M⁻¹ s⁻¹
- t1/2 [5]: 1.83 h
B1: bispecific anti-VEGF-A/anti-ANG2 Fab fragment P1AD9820 (Fab, V domains shown)
VH: SEHLVESGGGLVKPGGSLRLSCATADFFEYDDMSWVRQAPGKGLEWVGSISPKGDHKYLNTKFIGRFTISRDDSKNTLYLQMNSLRAEDTAVYYCARDVGFFDWWGQGTLVTVSS
VL: AIYMHQEPSSLSASVGDRVTITCHGSYWLNSEVAWYQQKPGKAPKLLIFDGDFKVYEVPSRFSGSGSHEDYTLTISSLQPEDFATYYCQQYRYHPYTFGHGTKVEIKR
notes: Bispecific Fab with two paratopes in one VH/VL pair; also called P1AD9820 Fab

- Kd [6]: 3 pM
- koff [6]: 4.53e-06 s⁻¹
B2: bispecific anti-VEGF-A/anti-ANG2 Fab fragment P1AA8906 (Fab, V domains shown)
VH: DFQLVESGGGLVKPGGSLRLSCAASYEFEYDDMSWVRQAPGKGLEWVGSISPKGGSTYYNTKFIGRFTISRDNSKNTLYLQMNSLRAEDTAVYYCARDVGFFDMWGQGTLVTVSS
VL: AIYMHQEPSSLSASVGDRVTITCHGSYWLSNYLAWYQQKPGKAPKLLIFDARWLVHGVPSRFSGSGSHEDYTLTISSLQPEDFATYYCQQYRYHPYTFGHGTKVEIKR
notes: Bispecific Fab with two paratopes in one VH/VL pair (DutaFab); CH1 and Ckappa
